Test results: PMC4841237, “Structure and stability of recombinant bovine odorant-binding protein: II. Unfolding of the monomeric forms” (PeerJ, 2016)

Target: the molecule itself
Assay: SEC; gel filtration on Superdex-75 PC 3.2/30, 20 mM Na-phosphate pH 7.8, without GdnHCl and at low GdnHCl (below 1.5-2 M), with or without 10 mM OCT; protein 0.1-0.2 mg/ml; monomer to dimer

B1: recombinant bovine odorant-binding protein (natural protein)
chain: AQEEEAEQNLSELSGPWRTVYIGSTNPEKIQENGPFRTYFRELVFDDEKGTVDFYFSVKRDGKWKNVHVKATKQDDGTYVADYEGQNVFKIVSLSRTHLVAHNINVDKHGQTTELTELFVKLNVEDEDLEKFWKLTEDKGIDKKNVVNFLENEDHPHPE
notes: In some samples 10 mM 1-octen-3-ol (OCT) was present; also called bOBP; bOBPwt; source: E. coli BL21(DE3), plasmid pT7-7-bOBP, purified (Ni+-agarose, HisGraviTrap)
For B1, which “stoichiometry N” value is on record?
The value was 2.
